{"source": "paper PMC6016246", "about": "“Cytokinin Signaling in Mycobacterium tuberculosis” (mBio, 2018)", "key": {"[1]": {"molecular_target": "the molecule itself", "assay": "crystal structure; DNA-free Rv0078, C2 space group crystals, sitting-drop vapor diffusion at 20°C, 0.1 M sodium cacodylate pH 6.4, 1.3 M lithium sulfate; 1.85 Å"}, "[2]": {"molecular_target": "T1, Rv0078 (Mycobacterium tuberculosis, UniProt O53623 1-201)", "T1 sequence": "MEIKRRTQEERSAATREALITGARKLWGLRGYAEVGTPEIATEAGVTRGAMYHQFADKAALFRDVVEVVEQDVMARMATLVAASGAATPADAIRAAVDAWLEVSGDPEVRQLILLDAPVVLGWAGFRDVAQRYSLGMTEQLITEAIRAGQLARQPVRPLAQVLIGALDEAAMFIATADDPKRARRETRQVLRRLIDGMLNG", "assay": "crystal structure; […], room temperature 30 min; […], buffer not stated", "details": "protein: recombinant; tags: C-terminal His6; chain copies: 4; blunt"}, "[3]": {"molecular_target": "T1, Rv0078", "assay": "ITC; […], room temperature 30 min; […], buffer not stated", "details": "protein: recombinant; tags: C-terminal His6; chain copies: 4"}}, "data": [{"binder": "Rv0078-His6 (TetR-like transcriptional repressor Rv0078) (natural protein, also called LoaR; EthR2; not shown: His6, C-terminal, kept) MEIKRRTQEERSAATREALITGARKLWGLRGYAEVGTPEIATEAGVTRGAMYHQFADKAALFRDVVEVVEQDVMARMATLVAASGAATPADAIRAAVDAWLEVSGDPEVRQLILLDAPVVLGWAGFRDVAQRYSLGMTEQLITEAIRAGQLARQPVRPLAQVLIGALDEAAMFIATADDPKRARRETRQVLRRLIDGMLNG", "values": [{"measurement": "stoichiometry N", "setting": "[1]", "result": 2}]}, {"binder": "23-mer operator duplex (dsDNA) DNA 1: TTTACAAGCAGACTGCCGGTAAC DNA 2: GTTACCGGCAGTCTGCTTGTAAA", "values": [{"measurement": "binding result", "setting": "[2]", "result": "binds"}]}, {"binder": "+13/-8 DNA probe (ITC) (dsDNA) DNA 1: TTACAAGCAGACTGCCGGTAA DNA 2: TTACCGGCAGTCTGCTTGTAA", "values": [{"measurement": "Kd", "setting": "[3]", "result": 357, "unit": "nM"}]}]}
